From the RNAGym collection of RNA variant scans (doi:10.1073/pnas.2313332121)

B1: TPR t1 (parent)
chain: GACCAAUCUGCCCUCAGAGCUCGAGAACAUCUUCGGAUGCAGAGGAGGCAGGCUUCGGUGGCGCGAUAGCGCCAACGUCCUCAACCUCCAAUGCAUCCCACCACAUGAUGAUGCCUGAAGAGCCUUGGUUUUUUG

Variants of: B1
Experiment: polymerase ribozyme fitness, log enrichment relative to wild type (log ratio); higher = more active; in vitro selection for triplet polymerase activity
Method in brief: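 Both subunits of a heterodimeric triplet polymerase ribozyme were given their own mutant library, built by PCR and transcribed. Each library was annealed with a biotinylated primer, the partner subunit and triplets, incubated frozen at −7 °C, and its extended constructs gel-excised, captured on streptavidin beads and amplified by RT-PCR, all in one round done in triplicate. Fitness is the logarithm of genotype enrichment relative to wild-type enrichment, with replicates averaged by inverse-variance weighting. That logarithm is base 2, and Illumina-sequenced genotypes needed ≥10 input reads and ≥1 read per output.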

Variant	polymerase ribozyme fitness (log ratio)
GACCAAUCUGCCCUCAGAGCUCGAGAACAUCUUCGGAUGCACAGGAGGCAGGCUUCGGUGGCGCGAUAGCGCCAACGUCCUCAACCUCCAAUGCAUCCCACCACAUGAUGGUGCCUGAAGCGCCUUGGUUUUUUG [G42C A111G A121C]	-1.57
GACCAAUCUGCCCUCAGAGCUCGAGAACAUCUUCGGAUGCACAGGAGGCAGGCUUCGGUGGCGCGAUAGAGCCAACGUCCUCAACCUCCAAUGCAUCCCACCACAUGAUGAUGCCUGAAGAGCCUUGGUUUUUUG [G42C C70A]	-4.99
GACCAAUCUGCCCUCAGAGCUCGAGAACAUCUUCGGAUGCACACGAGGCAGGCUUUGGUGGCGCGAUAGCGCCAACGUCCUCAACCUCCAAUGCAUCCCACCAUAUGAUGAUGCCUGAAGAGCCUUGGUUUUUUG [G42C G44C C56U C104U]	-0.811
GACCAAUCUGCCCUCAGAGCUCGAGAACAUCUUCGGAUGCACAGGUGGCAGGCUUCGGUGGCGCGAUAGCGCCAACGUCCUCAACCUCCAAUGCAUCCCACCACAUGAUGAUGCCUGAAGAGCCUUGGUUUUUUG [G42C A46U]	-2.24
GACCAAUCUGCCCUCAGAGCUCGAGAACAUCUUCGGAUGCACAGGAGGCAGGCUUCGGUGGCGCGAUAGCGCCAACGUCCUCAACCUCCAGUGCAUCCCACCACAUGAUGAAGCCUGAAGAGCCUUGGUUUUUUG [G42C A91G U112A]	-0.613
GACCAAUCUGCCCUCAGAGCUCGAGAACAUCUUCGGAUGCACAGGAGGCAGGCUUCAGUGGCGCGAUAGCGCCAACGUCCUCAACCUCCAAUGCAUCCCACCACUUGAUGAUGCCUGAAGAGCCUUGGUUUUUUG [G42C G57A A105U]	-5.05
GACCAAUCUGCCCUCAGAGCUCGAGAACAUCUUCGGAUGCACAGGAGACAGGCUUCGGUGGCGCGAUAGCGGCAACGUCCUCAACCUCCAAUGCAUCCCACCACAUGAUGAUGCCUGAAAAGCCUUGGUUUUUUG [G42C G48A C72G G120A]	-1.67
GACCAAUCUGCCCUCAGAGCUCGAGAACAUCUUCGGAUGCACAGGAGGCAGGCUUCGGUGGCGAGAUAGCGCCAACGUCCUCAACCUCCAAUGCAUCCCACCACAUGAUGAUGCCUGAAGAGCCUUGGUUUUUUG [G42C C64A]	-7.59
GACCAAUCUGCCCUCAGAGCUCGAGAACAUCUUCGGAUGCACAGGAGGCAGACUUCGGUUGCGCGAUAGCGCCAACGUCCUCAACCUCCAAUGCAUCCCAUCAAAUGAUGAUGCCUGAAGAGCCUUGGUUUUUUG [G42C G52A G60U C101U C104A]	-5.59
GACCAAUCUGCCCUCAGAGCUCGAGAACAUCUUCGGAUGCACAGGAGGCAGGCUUCGGUCGCGCGAUAGCGCCAACCACCUCAACCUCCAAUGCAUCCCACCACAUGAUGAUGCCUGAAGAGCCUUGGUGUUUUC [G42C G60C G77C U78A U130G G135C]	-3.55
GACCAAUCUGCCCUCAGAGCUCGAGAACAUCUUCGGAUGCACAGGUGGCAGGCUUCGGUCGCGCGAUAGCGCCAACGUCCUCAACCUCCAAUGCAUCCCACCACAUGAUGAUGCCUGAAGAGCCUUGGUUUUUUG [G42C A46U G60C]	-2.77
GACCAAUCUGCCCUCAGAGCUCGAGAACAUCUUCGGAUGCACACGAGGCAGGCUUCGGUGGCGCGAUAGCGCCAACGUCCCCAACCUCCAAUGCAUCCCACCACAUGAUGAUGCCUGAAAAGCCUUGGUUUUUUG [G42C G44C U81C G120A]	-2.45
GACCAAUCUGCCCUCAGAGCUCGAGAACAUCUUCGGAUGCACAGGAGGCAGGCUUCGGUGUCGCGAUAGCGCCAACGUCCUCAACCUCCAAUGCAUCCCACCACAUGAUGAUGCCUGAAGAGCCUUGGUUUUUUG [G42C G61U]	-1.04
GACCAAUCUGCCCUCAGAGCUCGAGAACAUCUUCGGAUGCACAGGAGGCAGGCUUCGAUGGCGCGAUAGCGCCAACGUCCUCAACCUCCAAUGCAUCCCACCACAUGAUGAUGCCUGAAUAGCCUUGGUUUUUUG [G42C G58A G120U]	-1.82
GACCAAUCUGCCCUCAGAGCUCGAGAACAUCUUCGGAUGCACAGGAGGCAGGCUUUGGUGGCGCGAUAUCGCCAACGUCCUCAACCUCCAAUACAUCCCACCACAUGAUGAUGCCUGAACAGCCUUGGUUGUUUG [G42C C56U G69U G93A G120C U131G]	-3.67
GACCAAUCUGCCCUCAGAGCUCGAGAACAUCUUCGGAUGCACCGGAGGCAGGCUUCGGUGGCGCGAUAGCGCCAACGUCCUCAACCUCCAAUGCAUCCCACCACAUGAUGAUGCAUGAAGAGCCUUGGUUUUUUG [G42C A43C C115A]	-1.55
GACCAAUCUGCCCUCAGAGCUCGAGAACAUCUUCGGAUGCACAGGAGGCAGGCUUCGGUGACGCGAUAGCGCCAACGUCCUUAACCUCCAAUGCAUCCCACCACAUGAUGAUGCCAGAAGAGCCUUGGUUUUUUG [G42C G61A C82U U116A]	-4.34
GACCAAUCUGCCCUCAGAGCUCGAGAACAUCUUCGGAUGCACAGGAGGCAGGCUUCAGUGGCGCGAUAGCGCCAACGUCCUCAACCUCCAAUGCAUCCCACCACAUGAUGAUGCCUGAAGAGCCUUGGUUUUUUG [G42C G57A]	-3.88
GACCAAUCUGCCCUCAGAGCUCGAGAACAUCUUCGGAUGCACAGGCGGCAGGCUUCGGUGGUGCGAUAGCGCCAACGUCCUCAACCUCCAAUGCGGCCCACCACAUGAUGAUGCCUGAAGAGCCUUGGUUUUUUG [G42C A46C C62U A95G U96G]	-4
GACCAAUCUGCCCUCAGAGCUCGAGAACAUCUUCGGAUGCACCGGAGGCAGGCUUCGGUGGCGCGAUAGCACCAACGUCCACAACCUCCAAUGCAUCCCACCACAUGAUGAUGCCUGAAUAGCCUUGGUUUUUUG [G42C A43C G71A U81A G120U]	-6.28
GACCAAUCUGCCCUCAGAGCUCGAGAACAUCUUCGGAUGCACAUGAGGCAGGCUUCGGUGGCGGGAUAGCGCCAACGUCCUCAACCUCCAAUGCAUCCCACCACAUGAUGAUUCCUGAAGAGCCUUGGUUUUUUG [G42C G44U C64G G113U]	-5.99
